T1: EsCas13d, nuclease-dead (Eubacterium siraeum, UniProt B0MS50, R295A;H300A;R849A;H854A)
T1 sequence: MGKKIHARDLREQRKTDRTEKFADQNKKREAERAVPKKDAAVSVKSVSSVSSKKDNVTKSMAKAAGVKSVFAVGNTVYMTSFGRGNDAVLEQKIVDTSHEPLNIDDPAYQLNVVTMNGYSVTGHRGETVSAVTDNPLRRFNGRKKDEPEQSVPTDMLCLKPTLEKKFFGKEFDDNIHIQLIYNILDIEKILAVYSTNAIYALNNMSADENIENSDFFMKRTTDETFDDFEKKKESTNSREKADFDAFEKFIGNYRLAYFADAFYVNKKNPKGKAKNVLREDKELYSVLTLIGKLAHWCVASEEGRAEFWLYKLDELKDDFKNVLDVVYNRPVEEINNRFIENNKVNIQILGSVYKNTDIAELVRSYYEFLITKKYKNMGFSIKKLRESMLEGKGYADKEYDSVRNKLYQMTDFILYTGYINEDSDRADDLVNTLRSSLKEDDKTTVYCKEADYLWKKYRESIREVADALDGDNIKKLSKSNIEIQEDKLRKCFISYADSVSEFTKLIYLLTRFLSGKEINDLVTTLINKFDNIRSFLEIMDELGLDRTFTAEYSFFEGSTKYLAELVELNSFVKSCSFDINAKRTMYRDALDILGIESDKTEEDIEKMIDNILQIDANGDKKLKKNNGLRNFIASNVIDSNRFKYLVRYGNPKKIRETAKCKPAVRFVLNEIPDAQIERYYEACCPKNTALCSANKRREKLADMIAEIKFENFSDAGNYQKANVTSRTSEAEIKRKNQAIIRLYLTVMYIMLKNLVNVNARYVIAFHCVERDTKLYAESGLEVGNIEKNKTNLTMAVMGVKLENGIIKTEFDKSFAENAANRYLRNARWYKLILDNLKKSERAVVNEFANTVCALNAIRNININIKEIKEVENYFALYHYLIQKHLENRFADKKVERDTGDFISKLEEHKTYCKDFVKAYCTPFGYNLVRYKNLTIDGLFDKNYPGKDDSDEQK

B1: target 1 A9U (mixed)
RNA 1: CACCCGUGCAAAAAUGCAGGGGUCUAAAACUGAGCGGAUAACCUCUCUAUGG
RNA 2: GGGAAUGGAUCCACAUCUACGAAUUCGUACCAUAGAGAGGUUUUCCGCUCACCGAGAUCGGAAGAGCACACGU
B2: target 1 insC 3' of 12,insG 3' of 2 (mixed)
RNA 1: B1 RNA 1
RNA 2: GGGAAUGGAUCCACAUCUACGAAUUCGUACCAUAGAGAGGCUUAUCCGCUCGACCGAGAUCGGAAGAGCACACGU
B3: target 1 C4A,A16G (mixed)
RNA 1: B1 RNA 1
RNA 2: B1 RNA 2 with A36G, U43A, C48A
B4: target 1 U3A,A9G (mixed)
RNA 1: B1 RNA 1
RNA 2: B1 RNA 2 with U43G, U49A
B5: target 1 insU 3' of 20,insG 3' of 2 (mixed)
RNA 1: B1 RNA 1
RNA 2: B2 RNA 2 with A34U, G35A, A36G, G37A, A38G, G39A, C41G
B6: target 1 insC 3' of 10,insC 3' of 5 (mixed)
RNA 1: B1 RNA 1
RNA 2: B2 RNA 2 with C41U, U43C, U50C, C51U, G52C
B7: target 1 U8A,C22U (mixed)
RNA 1: B1 RNA 1
RNA 2: B1 RNA 2 with C30U, U43A, U44A
B8: target 1 C6G,A16U (mixed)
RNA 1: B1 RNA 1
RNA 2: B1 RNA 2 with A36U, U43A, C46G
B9: target 1 U8G,U19A (mixed)
RNA 1: B1 RNA 1
RNA 2: B1 RNA 2 with U33A, U43A, U44G
B10: target 1 insC 3' of 20,insG 3' of 1 (mixed)
RNA 1: B1 RNA 1
RNA 2: GGGAAUGGAUCCACAUCUACGAAUUCGUACCACUAGAGAGGUUAUCCGCUCAGCCGAGAUCGGAAGAGCACACGU
B11: target 1 A9U,G12A (mixed)
RNA 1: B1 RNA 1
RNA 2: B1 RNA 2 with G40A
B12: target 1 insU 3' of 12,insA 3' of 6 (mixed)
RNA 1: B1 RNA 1
RNA 2: B2 RNA 2 with C41U, G48A, C49G, U50C, C51U, G52C
B13: target 1 insA 3' of 19,insC 3' of 3 (mixed)
RNA 1: B1 RNA 1
RNA 2: B10 RNA 2 with C33U, U34A, A52C, G53A
B14: target 1 A16C,C22A (mixed)
RNA 1: B1 RNA 1
RNA 2: B1 RNA 2 with C30A, A36C, U43A
B15: target 1 insG 3' of 22,insC 3' of 17 (mixed)
RNA 1: B1 RNA 1
RNA 2: GGGAAUGGAUCCACAUCUACGAAUUCGUACGCAUAGCAGAGGUUAUCCGCUCACCGAGAUCGGAAGAGCACACGU
B16: target 1 G15C,C22A (mixed)
RNA 1: B1 RNA 1
RNA 2: B1 RNA 2 with C30A, G37C, U43A
B17: target 1 insC 3' of 12,insA 3' of 11 (mixed)
RNA 1: B1 RNA 1
RNA 2: B2 RNA 2 with U43A, A44U, U45A, C46U, G48C, C49G, U50C, C51U, G52C
B18: target 1 insC 3' of 17,insU 3' of 17 (mixed)
RNA 1: B1 RNA 1
RNA 2: B15 RNA 2 with G31C, C32A, A33U, U34A, A35G, G36C, C37U
B19: target 1 insU 3' of 17,insA 3' of 13 (mixed)
RNA 1: B1 RNA 1
RNA 2: GGGAAUGGAUCCACAUCUACGAAUUCGUACCAUAGUAGAGAGUUAUCCGCUCACCGAGAUCGGAAGAGCACACGU
B20: target 1 insC 3' of 22,insC 3' of 10 (mixed)
RNA 1: B1 RNA 1
RNA 2: B15 RNA 2 with G31C, C37A, A38G, G39A, A40G, G42U, U44C
B21: target 1 C4A,G15U (mixed)
RNA 1: B1 RNA 1
RNA 2: B1 RNA 2 with G37U, U43A, C48A
B22: target 1 A1U,A9U (mixed)
RNA 1: B1 RNA 1
RNA 2: B1 RNA 2 with A51U
B23: target 1 U10G,C22A (mixed)
RNA 1: B1 RNA 1
RNA 2: B1 RNA 2 with C30A, U42G, U43A
B24: target 1 A18G (mixed)
RNA 1: B1 RNA 1
RNA 2: B1 RNA 2 with A34G, U43A
B25: target 1 insU 3' of 6,insG 3' of 3 (mixed)
RNA 1: B1 RNA 1
RNA 2: B2 RNA 2 with C41U, U43A, A44U, U45C, C47U, C51G, G52C
B26: target 1 G5U,G12C (mixed)
RNA 1: B1 RNA 1
RNA 2: B1 RNA 2 with G40C, U43A, G47U
B27: target 1 C2U,C4A (mixed)
RNA 1: B1 RNA 1
RNA 2: B1 RNA 2 with U43A, C48A, C50U
B28: target 1 insA 3' of 21,insA 3' of 8 (mixed)
RNA 1: B1 RNA 1
RNA 2: B10 RNA 2 with C33A, C46A, G48C, C49G, U50C, C51U, A52C, G53A
B29: target 1 insG 3' of 16,insU 3' of 7 (mixed)
RNA 1: B1 RNA 1
RNA 2: B19 RNA 2 with U36A, A37G, A41G, G42U, U44A, A45U, U46C, C47U
B30: target 1 insG 3' of 16,insA 3' of 10 (mixed)
RNA 1: B1 RNA 1
RNA 2: B19 RNA 2 with U36A, A37G, A41G, G42U, U44A
B31: target 1 insG 3' of 11,insG 3' of 7 (mixed)
RNA 1: B1 RNA 1
RNA 2: B2 RNA 2 with C41U, U42G, C47G, G48C, C49G, U50C, C51U, G52C
B32: target 1 U3A,G17A (mixed)
RNA 1: B1 RNA 1
RNA 2: B1 RNA 2 with G35A, U43A, U49A

Numbering of substitutions follows the chain as printed. Names and notes keep the numbering of the source.

For this data set, the target named is T1, EsCas13d, nuclease-dead. The data set can be described thus: crRNA (strand 1, pre-loaded); Mg2+; 40 mM Tris-HCl pH 7.5, 150 mM NaCl, 6 mM MgCl2, 1 mM DTT, 0.1% Tween-20, 0.2 mg/ml BSA; 25 C; 10 min per concentration, then washed. Particulars: tags: His6-TwinStrep-SUMO cleaved; N-terminal SNAP kept (SNAP-Surface 488); label: 3' end held by stalled T7 RNA polymerase.
By Kd is commonly meant the constant that tells how readily two partners part at equilibrium. Higher therefore signals weaker binding. For the molecule B1, the Kd came out at 0.0089 ± 0.0007 µM. In the case of B2 it was 0.0098 ± 0.0012 µM; in that of B3, 0.0172 ± 0.0015 µM; in that of B4, 0.00734 ± 0.00029 µM. In the case of B5 it was 0.0117 ± 0.0005 µM; in that of B6, 0.0111 ± 0.0011 µM; in that of B7, 0.035 ± 0.005 µM. Then B8, with 0.0409 ± 0.0034 µM. B9 yielded a Kd of 0.061 ± 0.013 µM. Then B10, with 0.0093 ± 0.0004 µM; and B11, with 0.0077 ± 0.0004 µM; and B12, with 0.0086 ± 0.0009 µM. On to B13, for which the Kd is 0.0174 ± 0.0019 µM.

Regarding B14, the dissociation constant Kd was 0.071 ± 0.007 µM. B15 came in with a Kd of around 0.07 µM. In the case of B16 it was 0.063 ± 0.012 µM; in that of B17, 0.015 ± 0.0012 µM.

Turning to B18, the dissociation constant (Kd) was 0.095 ± 0.014 µM. Then B19, with 0.0131 ± 0.0013 µM. In the case of B20 it was 0.041 ± 0.01 µM; in that of B21, 0.051 ± 0.019 µM; in that of B22, 0.0078 ± 0.0005 µM. In the case of B23 it was 0.06 ± 0.014 µM. As for B24, the affinity, expressed as Kd, was 0.094 ± 0.028 µM. Then B25, with 0.0079 ± 0.0004 µM; and B26, with 0.041 ± 0.004 µM; and B27, with 0.0067 ± 0.0004 µM. Molecule B28 displayed a Kd of 0.0389 ± 0.0018 µM. The molecule B29 yielded a Kd of 0.0228 ± 0.0018 µM. In the case of B30 it was 0.0199 ± 0.0015 µM. In the case of B31 it was 0.0172 ± 0.0008 µM; in that of B32, 0.046 ± 0.005 µM.

For the origin of these results see publication PMC10786891, “Massively parallel profiling of RNA-targeting CRISPR-Cas13d”.
